Data as given in patent US11840574B2, “Anti-DR5 antibody and use thereof” (DONG-A ST CO., LTD., priority 2017, dated 2023).
Changes are numbered by the printed parent chain. Blank lines part the entries; values can stand above or below the molecule they belong to.

Experiments:
Human DR5 [1] = target: T1, Human DR5 (Homo sapiens, UniProt O14763); experiment: Binding affinity of antibody to human DR5 (BIAcore, CM5 chip); settings: for Ka(1/Ms) / Ka: association rate, Human DR5, 1:1 Langmuir binding model; for Kd: equilibrium dissociation constant, Human DR5
Method: In order to measure affinity, human DR5 was coupled to carboxylated dextran biosensor chips (CM5, GE) according to the manufacturer's instruction. Association and dissociation rates were assessed by injecting IgG proteins that were 2-fold serially diluted to 5 nM, 2.5 nM, 1.25 nM, 0.625 nM, 0.313 nM, and 0.156 nM.
Association and dissociation rates were depicted in association and dissociation sensorgrams and calculated using a simple 1:1 Langmuir binding model (BIAcore X100 Evaluation Software, ver. 2.0). The equilibrium dissociation constants (KD), which is the ratio of dissociation constant (Kd) to association constant (Ka), were confirmed to be in the sub-nanomolar range. Measurements of the binding of antibody D0 and DA1 to DA35 of the present disclosure to DR5 are given in Table 11 below (antibody names are given as the names of the clones from which the antibodies were derived). A representative sensorgram for D0 is depicted in FIG. 1.

Human DR5 [2] = target: T1, Human DR5; experiment: TRAIL competitive enzyme-linked immunosorbent assay; type: binding; settings: 0.01-400 nM of TRAIL protein, absorbance at 405 nm
Method: In order to examine antigen-binding characteristics of the antibodies selected in Example 3, a TRAIL competitive enzyme-linked immunosorbent assay was conducted. ELISA plates were coated with 0.1 μg/ml human DR5 (R&D systems, U.S.A.) at 4° C. Thereafter, the plates were incubated with 0.01 nM-1440 nM of antibodies (D0, DA20, DA21, DA21, DA22, and DA23) together with 0.01-400 nM of TRAIL protein for 2 hours. After the plates were washed three times with PBST (0.1% bovine serum albumin and Tween-20 in PBS), HRP (horse radish peroxidase)-conjugated anti-human immunoglobulin Fc was added to each well and incubated for 1 hour. After three washes with PBST, color development was performed for 20 min with ABTS (Thermo, U.S.A.). When the color development reached to a certain level, the reaction was terminated with 1 N sulfuric acid. Absorbance at 405 nm was measured using a spectrophotometer (Molecular Device, U.S.A.) and is depicted in FIGS. 8a and 8b. The antibody AP disclosed in Example (7-1) was used as a control.

[3] = test system: human pancreatic cell line Miapaca-2; experiment: Cell death activity upon co-treatment with TRAIL, Miapaca-2; type: cell-based; settings: Miapaca-2, antibody as low as 10 ng/ml, TRAIL 0.5, 1, 10 ng/ml
Method: (§1) Antibody properties according to epitopes were analyzed in terms of cell death activity upon co-treatment with the constructed antibodies and TRAIL. In this test, the human colorectal cancer cell line Colo205 (ATCC, U.S.A.) and the human pancreatic cell line Miapaca-2 (ATCC, U.S.A.) were employed. The tumor cells were suspended at a concentration of 1×10^5 cells/ml and the suspensions were plated at 50 μl per well into 96-well culture plates, followed by incubation for 16-24 hours in a constant temperature and humidity chamber. Serial dilutions of the antibodies (0.1-10000 ng/ml) and TRAIL protein at determined concentrations (0.5, 1, 10 ng/ml) were applied in combination to the 96-well plates. After incubation for 48 to 72 hours at a constant temperature in a humidified condition, a resazurin solution (Invitrogen, U.S.A.) was added at an amount of 10 μl to per well. When the reaction reached a certain level after 1 to 2 hours, fluorescence was read at 590 nm using a spectrophotometer (Molecular Device). Cell viability was calculated as the percentage of relative fluorescence units (RFU) of a test substance-treated group (treated RFU) to the relative fluorescence units of a culture medium-treated group (untreated RFU) (Cell viability (%)=treated RFU/Untreated RFU×100).
(§2) Representative results are depicted in FIGS. 9a (Colo205) and 9b (Miapaca-2). […]

[4] = test system: human colorectal cancer cell line Colo205; experiment: Cell death activity upon co-treatment with TRAIL, Colo205; type: cell-based; settings: Colo205, antibody as low as 10 ng/ml, TRAIL 0.5, 1, 10 ng/ml
Method: as §1, §2

[5] = Pharmacokinetics of antibody in nude mice (plasma ELISA); type: in vivo; settings: intravenous, 10 mg/kg
Method: In order to examine in vivo kinetics of the antibodies constructed above, blood half-life was evaluated in mice. Antibodies were intravenously injected at doses of 1-10 mg/kg into nude mice. Blood was sampled from the orbital vein from 5 min to 14 days after injection. The blood collection was conducted using heparinized capillary tubes. Plasma obtained by centrifugation of the blood samples was diluted at certain ratios and used as samples for ELISA evaluation. Human DR5 diluted to a concentration of 10 ng/ml was plated at 100 μl per well onto 96-well immune plates (Nunc, U.S.A.) and adsorbed to the wells for 12-14 hours. The plates were washed three times with buffer solution containing 0.1% Tween 20 and blocked with buffer solution containing bovine serum albumin (Sigma, U.S.A.) at room temperature for 1 hour. After three rounds of washing with buffer solution, the plates were incubated with each of the mouse plasma dilutions and a serial dilution of standard substance at room temperature for 2 to 3 hours. After three washes with buffer solution, a 1:20000 dilution of an HRP-conjugated anti-human immunoglobulin Fc (Fc-HRP) antibody (Bethyl, U.S.A.) was added at a volume of 100 μl per well and incubated at room temperature for 1 hour. After washing three times, 100 μl of a TMB solution (Sigma, U.S.A.) was added to each well and allowed to react. When the color development reached a certain level, the reaction was terminated with 0.2 N sulfuric acid solution. Absorbance at 450 nm was measured using a spectrophotometer (Molecular Device, U.S.A.). The antibody concentration in each plasma sample was calculated from the optical density (OD) measurements, and pharmacokinetic parameters were estimated using WinNonLin ver. 6.2.0.495.

Ka(1/Ms) (Human DR5 [1]): 1.11 × 10^06 1/Ms
Kd (Human DR5 [1]): 6.43 pM
B2: DA21: humanized or deimmunized variant of parental clone D0; CDRs SEQ ID NO 1, 2, 7 / 4, 10, 16 (antibody, V domains shown)
VH: EVQLVESGGGLVQPGGSLRLSCAASGFTFSSFNMLWVRQAPGKGLEWVAGIGKSDRYTGYGSAVKGRFTISRDDSKSTVYLQMNSLRAEDTAVYYCVRDAGSGCGSGGWTGACIDTWGQGTLVTVSS
VL: DIQMTQSPSSLSASVGDRVTITCSGGDSYAGSYYYGWYQQKPGKAPKTLIYNNNNRPSGVPSRFSGSRSGTDFTLTISSLQPEDFATYYCGSRDSSGAGGFGQGTKVEIK
antigen binding in the presence of TRAIL (Human DR5 [2]): maintained a certain level of antigen binding irrespective of TRAIL concentrations

Ka(1/Ms) (Human DR5 [1]): 6.96 × 10^05 1/Ms
Kd (Human DR5 [1]): 40.3 pM
B7: DA23: humanized or deimmunized variant of parental clone D0; CDRs SEQ ID NO 1, 2, 9 / 4, 10, 13 (antibody, V domains shown)
VH: B2 VH with G103P, S106K
VL: B2 VL with R68T, G97Y, A98V, G100I
cell death activity in combination with TRAIL, compared to antibody alone [3]: higher cell death activity
cell death activity in combination with TRAIL, compared to antibody alone [4]: higher cell death activity
antigen binding in the presence of TRAIL (Human DR5 [2]): maintained a certain level of antigen binding irrespective of TRAIL concentrations
Cmax [5]: 195.8 µg/mL
t½ Terminal (2 d~14 d) [5]: 191 h
t½ initial (−1 d) [5]: 13.9 h

Ka(1/Ms) (Human DR5 [1]): 9.32 × 10^05 1/Ms
Kd (Human DR5 [1]): 34.2 pM
B8: DA22: humanized or deimmunized variant of parental clone D0; CDRs SEQ ID NO 1, 2, 8 / 4, 10, 13 (antibody, V domains shown)
VH: B2 VH with G103P
VL: B2 VL with R68T, G97Y, A98V, G100I
antigen binding in the presence of TRAIL (Human DR5 [2]): maintained a certain level of antigen binding irrespective of TRAIL concentrations
Cmax [5]: 227.9 µg/mL
t½ Terminal (2 d~14 d) [5]: 201 h
t½ initial (−1 d) [5]: 16.8 h

Ka(1/Ms) (Human DR5 [1]): 1.13 × 10^06 1/Ms
Kd (Human DR5 [1]): 80.1 pM
B9: DA35: humanized or deimmunized variant of parental clone D0; CDRs SEQ ID NO 1, 2, 7 / 4, 10, 13 (antibody, V domains shown)
VH: AVTLDESGGGLQTPGGGLSLVCKGSGFTFSSFNMLWVRQAPGKGLEWVAGIGKSDRYTGYGSAVKGRATISRDDGQSTARLQMNSLRAEDTAVYYCVKDAGSGCGSGGWTGACIDTWGHGTEVIVSS
VL: LTQPSSVSANLGGTVEITCSGGDSYAGSYYYGWYQQKAPGSAPVTVIYNNNNRPSNIPSRFSGSTSGSTATLTITGVQAEDEATYFCGSRDSSYVGIFGAGTTLTVL

Continued, molecule first:

B1: DA20: humanized or deimmunized variant of parental clone D0; CDRs SEQ ID NO 1, 2, 7 / 4, 10, 14 (antibody, V domains shown)
VH: B2 VH
VL: B2 VL with S96A, A98M, G100A
Ka(1/Ms) (Human DR5 [1]): 1.00 × 10^06 1/Ms
Kd (Human DR5 [1]): 12 pM
antigen binding in the presence of TRAIL (Human DR5 [2]): maintained a certain level of antigen binding irrespective of TRAIL concentrations

B3: DA2: humanized or deimmunized variant of parental clone D0; CDRs SEQ ID NO 1, 2, 7 / 4, 10, 13 (antibody, V domains shown)
VH: B2 VH
VL: B2 VL with G97Y, A98V, G100I
Ka (Human DR5 [1]): 1.9e+06 M⁻¹ s⁻¹

B4: DA3: humanized or deimmunized variant of parental clone D0; CDRs SEQ ID NO 1, 2, 7 / 4, 10, 13 (antibody, V domains shown)
VH: B2 VH with D74T
VL: B2 VL with R68T, G97Y, A98V, G100I
Ka (Human DR5 [1]): 4.9e+06 M⁻¹ s⁻¹

B5: DA1: humanized or deimmunized variant of parental clone D0; CDRs SEQ ID NO 1, 2, 7 / 4, 10, 13 (antibody, V domains shown)
VH: B2 VH
VL: B2 VL with R68T, G97Y, A98V, G100I
Ka (Human DR5 [1]): 4.9e+06 M⁻¹ s⁻¹

B6: DA4: humanized or deimmunized variant of parental clone D0; CDRs SEQ ID NO 1, 2, 7 / 4, 10, 13 (antibody, V domains shown)
VH: B2 VH with S77N
VL: B2 VL with R68T, G97Y, A98V, G100I
Ka (Human DR5 [1]): 1.2e+06 M⁻¹ s⁻¹
